Measured values from US20240018513A1, “SYNTHETIC INTRONS FOR TARGETED GENE EXPRESSION” (FRED HUTCHINSON CANCER CENTER, priority 2020, published 2024).

What was measured:
[1] = tested on: WT or SF3B1-mutant K562 cells; assay: K562 xenografts (intravenous), GCV or PBS, bioluminescence and survival; format: in vivo, NOD-scid IL2Rgnull (NSG) mice
Source text: FIGS. 4A-4I: Synthetic introns enable mutation-dependent cancer cell targeting in vivo. (4A) Schematic of xenograft experiments with K562 cells expressing Luciferase and HSV-TK interrupted by synMTERFD3i1-150. K562 cells were intravenously injected into sub-lethally irradiated (250 cGy) NOD-scid IL2rgnull (NSG) mice (2M cells/mouse). n=10 (WT) and 9 (SF3B1-mutant) mice per cohort. (4B) Quantification of tumor burden, estimated by whole-body bioluminescent signal. Each point represents a single mouse. (4C) Representative bioluminescence images from cohorts described in (4A). (4D) Survival of mice from cohort described in (4A). p computed with logrank test. Comparisons not illustrated on plot are not significant (p+/+ GCV vs. PBS=0.534; pK700E/+PBS vs.+/+PBS=0.823). The cause of death for the one GCV-treated animal engrafted with an SF3B1-mutant leukemia which died by experiment endpoint was unclear, as this animal had minimal leukemic burden by imaging or necropsy. (4E) Survival curves of NSG mice engrafted with SF3B1 WT (top) or SF3B1 K700E (bottom) MOLM-13 cells expressing Luciferase and HSV-TK interrupted by synMTERFD3i1-150 followed by treatment with either PBS or GCV. pK700E/+ PBS vs. pK700E/+GCV=0.011. n=10 mice/group. (4F) Representative bioluminescence images from cohorts described in (4E). (4G) Tumor volumes of mice engrafted with SF3B1 WT or SF3B1 K700E T47D cells expressing HSV-TK interrupted by synMTERFD3i1-150 followed by treatment with either PBS or GCV. T47D cells were engrafted subcutaneously. Data represented as mean±s.d. n=8 mice/group. (4H) Tumor volumes of mice engrafted with SF3B1 WT MEL285 cells (left) or SF3B1 R625G MEL202 cells (right) expressing HSV-TK interrupted by synthetic intron 6700 (synMTERFD3i1-150 with A>C at −7 nt; A>C at −19 nt) followed by treatment with either PBS or GCV. All cells were engrafted subcutaneously. Data represented as mean±s.d. n=10 mice/group. (4I) Representative gross images of the tumors from (4H) at day 27 post-implantation.
Having identified the key features governing mutation responsiveness, the next step was to test whether synthetic introns permitted mutation-dependent cancer cell killing in vivo. A focus was made on synMTERFD3i1-150 for these experiments, as it served as the parent synthetic intron from which most of the full library was derived. Luciferase-GFP constructs were introduced into WT or SF3B1-mutant K562 cells expressing HSV-TK interrupted by synMTERFD3i1-150, tail vein injections of these cells were performed into NOD-scid IL2Rgnull (NSG) mice. The mice were treated with PBS or GCV and monitored for leukemia burdens with live imaging (FIG. 4A). […]

[2] = tested on: MOLM-13 cells; assay: MOLM-13 xenografts (intravenous), doxycycline-inducible SF3B1 WT or K700E, GCV or PBS; format: in vivo, NSG mice; settings: GCV-treated arm engrafted with SF3B1K700E-expressing MOLM-13 cells
Source text: FIGS. 4A-4I: Synthetic introns enable mutation-dependent cancer cell targeting in vivo. (4A) Schematic of xenograft experiments with K562 cells expressing Luciferase and HSV-TK interrupted by synMTERFD3i1-150. K562 cells were intravenously injected into sub-lethally irradiated (250 cGy) NOD-scid IL2rgnull (NSG) mice (2M cells/mouse). n=10 (WT) and 9 (SF3B1-mutant) mice per cohort. (4B) Quantification of tumor burden, estimated by whole-body bioluminescent signal. Each point represents a single mouse. (4C) Representative bioluminescence images from cohorts described in (4A). (4D) Survival of mice from cohort described in (4A). p computed with logrank test. Comparisons not illustrated on plot are not significant (p+/+ GCV vs. PBS=0.534; pK700E/+PBS vs.+/+PBS=0.823). The cause of death for the one GCV-treated animal engrafted with an SF3B1-mutant leukemia which died by experiment endpoint was unclear, as this animal had minimal leukemic burden by imaging or necropsy. (4E) Survival curves of NSG mice engrafted with SF3B1 WT (top) or SF3B1 K700E (bottom) MOLM-13 cells expressing Luciferase and HSV-TK interrupted by synMTERFD3i1-150 followed by treatment with either PBS or GCV. pK700E/+ PBS vs. pK700E/+GCV=0.011. n=10 mice/group. […]
Next, the potential efficacy of using synthetic introns was tested in other cancer models. […] Leukemia burden and survival were monitored. […]

[3] = tested on: T47D cells; assay: T47D subcutaneous xenografts, doxycycline-inducible SF3B1 WT or K700E, GCV or PBS; format: in vivo, NSG mice; settings: GCV vs PBS

B1: intron_26: 150 nt MTERFD3 intron 1-derived synthetic intron, deletion 25to125; SEQ ID NO 58/66 (nucleic acid)
DNA 1: GTGAGTCGCCCCCTTCCTCTGCTCCGAGAGGGAAATGGGAATTAGGGTGGTGGCAGAGCCCAAAGAGGCCTTGTAGGCCATGGTAAGGCATTTCTATGTTTTATTTTACTTTGTCTTTATCCTAAAATGCCATTGGCAAGTTTATTGCAG
DNA 2: GTGAGTCGCCCCCTTCCTCTGCTCCGAGAGGGAAATGGGAATTAGGGTGGTGGCAGAGCCCAAAGAGGCCTTGTAGGCCATGGTAAGGCATTTCTATGTTTTATTTTACTTTGTCTTTATCCTAAAATGCCATTGGCAAGTTTATTGCAG
survival, p (logrank test) ([1]; +/+ (WT) GCV vs. PBS): 0.534
leukemic burden (whole-body bioluminescent signal) ([1]; GCV 80 mg/kg IP three times per week vs PBS): immediate and sustained suppression of SF3B1-mutant leukemic burden, with no effects on WT leukemias
survival ([1]; GCV- vs PBS-treated SF3B1-mutant leukemias): significantly increased survival
survival, p (logrank test) ([1]; GCV- vs. PBS-treated SF3B1-mutant leukemias): 1.7e-4
survival and tumor burden [2]: significantly prolonged survival and reduced tumor burden
tumor burden (tumor volume) [3]: specifically reduced tumor burden in the GCV-treated arm engrafted with SF3B1K700E-expressing cells
